These results are taken from patent US20160185837A1 (Medimmune Limited, priority 2013, published 2016).

Holding throughout (format): cell-based
The target in experiment [1] is T1, human GIP receptor (hGIPr) (Homo sapiens, UniProt P48546).
T1 construct: expressed in transfected cells
T1 sequence (P48546 22-466): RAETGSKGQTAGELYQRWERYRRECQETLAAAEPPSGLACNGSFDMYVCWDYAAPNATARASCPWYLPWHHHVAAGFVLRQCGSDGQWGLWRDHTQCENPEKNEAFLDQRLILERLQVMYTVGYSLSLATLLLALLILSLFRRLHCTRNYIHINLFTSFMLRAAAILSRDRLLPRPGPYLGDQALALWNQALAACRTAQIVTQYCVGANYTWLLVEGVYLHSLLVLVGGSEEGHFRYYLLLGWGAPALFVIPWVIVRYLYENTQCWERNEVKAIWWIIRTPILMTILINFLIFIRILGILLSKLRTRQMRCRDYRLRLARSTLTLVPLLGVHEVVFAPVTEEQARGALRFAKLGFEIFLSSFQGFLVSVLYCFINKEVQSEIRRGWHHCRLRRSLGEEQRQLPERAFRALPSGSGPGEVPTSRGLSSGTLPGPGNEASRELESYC
Kind of experiment: BSA-cAMP assay, cells expressing human GIP receptor. The method, boiled down:
(§1)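 EC50 came from an unconstrained 4-parameter logistic fit of HTRF cAMP data expressed as percent of maximal native agonist activation, tested on two occasions. Thawed receptor-expressing cells (hGLP-1r, hGIPr at 0.5×10^5 cells/ml) treated 30 min at room temperature in 0.1% BSA-containing medium; two distinct hGIPr lines.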

Another experiment deals with T2, rat GIP receptor (rGIPr) (Rattus norvegicus, UniProt P43219).
T2 construct: expressed in transfected cells; host or cells: HEK293s or CHO cells
T2 sequence (P43219 19-455): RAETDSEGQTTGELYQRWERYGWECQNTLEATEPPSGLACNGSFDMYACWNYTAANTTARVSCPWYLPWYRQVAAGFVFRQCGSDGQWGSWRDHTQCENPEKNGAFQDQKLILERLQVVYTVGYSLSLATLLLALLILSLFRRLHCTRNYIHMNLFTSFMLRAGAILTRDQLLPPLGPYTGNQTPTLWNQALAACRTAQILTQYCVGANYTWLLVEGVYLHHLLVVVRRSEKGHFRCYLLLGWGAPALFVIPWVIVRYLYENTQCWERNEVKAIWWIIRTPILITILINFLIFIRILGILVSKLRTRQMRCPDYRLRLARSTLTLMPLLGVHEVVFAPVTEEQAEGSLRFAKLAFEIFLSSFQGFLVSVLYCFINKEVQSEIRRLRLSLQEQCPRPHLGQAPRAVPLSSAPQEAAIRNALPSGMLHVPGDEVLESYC
Kind of experiment: BSA-cAMP assay, cells expressing rat GIP receptor. The method, boiled down: (§2)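 EC50 is the midpoint of an unconstrained 4-parameter logistic fit to HTRF cAMP data, expressed as percent of maximal native agonist response, from two separate occasions. Rodent (mouse, rat) GLP-1R- or GIPR-expressing cells were incubated with compound 30 min at room temperature in 0.1% BSA medium, in duplicate.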
(In general: cAMP levels reflect the balance of adenylyl cyclase and phosphodiesterase activity.)

Experiment [2] has as its target T3, mouse GIP receptor (mGIPr) (Mus musculus, UniProt Q0P543).
T3 construct: expressed in transfected cells; host or cells: HEK293s or CHO cells
T3 sequence (Q0P543 19-460): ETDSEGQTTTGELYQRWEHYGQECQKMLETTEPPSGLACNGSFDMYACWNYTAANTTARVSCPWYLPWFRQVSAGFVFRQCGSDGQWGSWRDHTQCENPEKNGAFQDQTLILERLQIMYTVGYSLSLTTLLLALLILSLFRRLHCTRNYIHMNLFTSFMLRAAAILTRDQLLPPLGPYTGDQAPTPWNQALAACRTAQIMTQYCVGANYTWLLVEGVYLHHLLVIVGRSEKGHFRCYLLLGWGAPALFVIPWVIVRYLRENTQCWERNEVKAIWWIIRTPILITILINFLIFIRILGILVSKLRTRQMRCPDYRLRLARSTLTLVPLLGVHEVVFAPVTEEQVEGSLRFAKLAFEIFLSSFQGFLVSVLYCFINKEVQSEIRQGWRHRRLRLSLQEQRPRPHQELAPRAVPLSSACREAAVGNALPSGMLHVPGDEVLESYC
Kind of experiment: BSA-cAMP assay, cells expressing mouse GIP receptor. The method, boiled down: as §2

In experiment [3] the target is T4, human GLP-1 receptor (hGLP-1r) (Homo sapiens, UniProt P43220).
T4 construct: expressed in transfected cells
Nature of the experiment: BSA-cAMP assay, cells expressing human GLP-1 receptor. The essentials:
as §1

T4 sequence (P43220 24-463): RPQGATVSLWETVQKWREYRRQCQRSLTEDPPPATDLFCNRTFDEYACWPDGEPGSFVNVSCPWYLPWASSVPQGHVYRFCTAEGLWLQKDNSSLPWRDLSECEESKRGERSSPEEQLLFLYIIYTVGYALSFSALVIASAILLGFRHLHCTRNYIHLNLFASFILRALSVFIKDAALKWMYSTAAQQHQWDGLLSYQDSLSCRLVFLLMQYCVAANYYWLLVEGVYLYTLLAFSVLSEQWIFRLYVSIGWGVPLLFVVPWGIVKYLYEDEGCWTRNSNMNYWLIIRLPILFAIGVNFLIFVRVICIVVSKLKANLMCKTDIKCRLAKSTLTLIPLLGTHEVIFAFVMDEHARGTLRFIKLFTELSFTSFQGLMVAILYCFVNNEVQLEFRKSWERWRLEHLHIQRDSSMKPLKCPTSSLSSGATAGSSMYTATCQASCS

B1: IP367 (protein)
chain: YSEGTFTSDYRILKERQAIDEFIAWLLKGGAAAGGSGSTASSGSGSATGGGGAATHTCPPC
By EC50 is commonly meant the concentration that produces a half-maximal response. For B1, the concentration for a half-maximal effect (EC50) in experiment [1] (Batch 1, BSA-cAMP assay, read-out: hGIPr cAMP activity EC50) stood at 0.057 nM; in the experiment with rat GIP receptor (rGIPr) (Batch 1, BSA-cAMP assay, read-out: rGIPr cAMP activity EC50), 0.0099 nM; in experiment [2] (Batch 1, BSA-cAMP assay, read-out: mGIPr cAMP activity EC50) it was 0.031 nM; in experiment [3] (Batch 1, BSA-cAMP assay, read-out: hGLP1r cAMP activity EC50) it was 4.4 nM.

B2: IP088: Fc fusion, IgG1-TM, SEQ ID NO:105; agonist peptide YSEGTFTSDYSKLLEEEAVRLFIEWLVKGP (SEQ ID NO:15) (protein)
chain: YSEGTFTSDYSKLLEEEAVRLFIEWLVKGPAAAGGSGSTASSGSGSATGGGGAATHTCPPCPAPEF
modifications: also: Fc fusion, IgG1-TM
For the molecule B2, the figures for the “potency for GIPr, in words” value (in experiment [1] (human receptor); in the experiment with rat GIP receptor (rGIPr) (rat receptor); in experiment [2] (mouse receptor)) were “high potencies”, “high potencies” and “relatively lower potency”, respectively. Further, the “potency for GLP-1r, in words” value in experiment [3] (human receptor) is “high potency”.
